Laboratory results as given in patent publication US20240384250A1, “FIBROBLAST GROWTH FACTOR 23 MODULATING COMPOUNDS” (THE UAB RESEARCH FOUNDATION, priority 2021, published 2024).
Entries after “also recorded” stand apart in the source; their conditions may differ.

Key:
Assay in all cases: Pull-down of FLAG-sKL with Fc-tagged FGFR on protein A/G beads, absence of FGF23
Type in all cases: binding
FGFR2c = molecular target: T1, FGFR2c (Homo sapiens, UniProt P21802)
T1 construct: Fc-coupled FGFR ectodomains were immobilized on protein A/G beads; purchased R&D Systems 712FR050
T1 sequence (P21802 22-377 limits assumed): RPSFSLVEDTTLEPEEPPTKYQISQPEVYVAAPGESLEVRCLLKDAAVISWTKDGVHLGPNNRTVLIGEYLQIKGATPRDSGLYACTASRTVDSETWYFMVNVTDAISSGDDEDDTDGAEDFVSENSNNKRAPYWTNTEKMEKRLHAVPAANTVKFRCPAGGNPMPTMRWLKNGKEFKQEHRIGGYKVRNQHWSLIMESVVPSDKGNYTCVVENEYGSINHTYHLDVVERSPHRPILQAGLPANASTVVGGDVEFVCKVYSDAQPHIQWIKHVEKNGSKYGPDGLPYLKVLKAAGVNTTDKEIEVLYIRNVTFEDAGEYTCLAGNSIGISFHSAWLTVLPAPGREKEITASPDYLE
Description: (§1) To study the interaction between Fc-tagged FGFR isoforms (Fc-FGFR), FGF isoforms, and sKL, immunoprecipitation studies were conducted. Protein A beads (6501, BioVision) and protein G beads (6511, BioVision) were used at 25 μl of a 50% stock slurry per sample in a total bead volume of 50 μl. Beads were washed 5× in activity buffer (50 mM Tris [pH 7.4], 200 mM NaCl, 0.01% Tween 20). Bead spin-down assays were all performed for 2 minutes at 5000 g. Beads were resuspended in 1 ml of activity buffer in a 1.5-ml snap cap tube. One microgram of Fc-FGFR1 to 4 was incubated with the beads for 1 hour on a bead rotator. Control samples were incubated with 2 μg of anti-FGF antibody instead of Fc-FGFR. Beads were then pelleted at 5000 g for 2 minutes and washed 5× with activity buffer. Beads were resuspended and incubated with different combinations of 500 ng of FGF, 1 μg of sKL, 1.6 United States Pharmacopeia (USP) units of heparin, or phosphate-buffered saline (PBS). Beads were incubated for 1 hour on a tube rotator, and beads were pelleted and washed as before. One hundred microliters of 1× Laemmli sample buffer (1610737, Bio-Rad) with 1.42 M 2-mercaptoethanol was added, and samples were boiled for 5 minutes. Samples were analyzed using SDS-PAGE and Western blotting.
(§2) The sample (20 μl) was loaded onto Mini-PROTEAN TGX Precast Gel 4-20% for experiments with <9 samples (4568094, Bio-Rad) or Criterion TGX Precast Gel 4-20% (5678094, Bio-Rad) for experiments with >9 samples. Gels were run in 1× Tris/Glycine/SDS buffer (1610732, Bio-Rad) at 150 V and stopped when the sample dye reached the end of the gel. Gels were removed and electrotransferred via a semi-dry cassette (1703940, Bio-Rad) in I× Tris/Glycine buffer (1610734, Bio-Rad) with 20% methanol. Gels were transferred onto polyvinylidene diflouride membranes (IPVH00010, Millipore) at 20 V for 1 hour. Membranes were then blocked in 5% dried milk with 0.5% Tween 20 diluted in Tris-buffered saline (TBST; pH 7.5) for 1 hour and probed with antibodies against specific antigens at 1:1000 in TBST with 5% dried milk. Blots were washed 3× for 5 minutes in TBST and probed with HRP-coupled secondary antibodies against specific species at 1:10,000 in TBST with 5% dried milk. Membranes were imaged on the SRX-101A X-ray film developer (Konica Minolta).

FGFR4 = molecular target: T2, FGFR4 (Homo sapiens, UniProt P22455); conditions: listed as FLAG-sKL
T2 construct: Fc-FGFR4 protein (human ectodomain) was immobilized; purchased R&D Systems 685FR050
T2 sequence (P22455 22-369 limits assumed): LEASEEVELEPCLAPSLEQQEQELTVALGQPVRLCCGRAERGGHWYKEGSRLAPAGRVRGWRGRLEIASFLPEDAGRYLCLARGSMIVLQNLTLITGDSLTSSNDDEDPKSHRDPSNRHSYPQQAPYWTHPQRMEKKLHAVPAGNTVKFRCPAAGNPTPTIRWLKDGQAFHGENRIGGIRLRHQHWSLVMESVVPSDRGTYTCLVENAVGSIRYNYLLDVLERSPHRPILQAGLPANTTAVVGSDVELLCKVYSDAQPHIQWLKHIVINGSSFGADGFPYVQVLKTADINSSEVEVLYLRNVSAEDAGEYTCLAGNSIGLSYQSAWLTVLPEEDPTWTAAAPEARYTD
Description: as §1, §2

FGFR3c = molecular target: T3, FGFR3c (Homo sapiens, UniProt P22607)
T3 construct: Fc-coupled FGFR ectodomains were immobilized on protein A/G beads; purchased R&D Systems 766FR050
T3 sequence (P22607 23-375 limits assumed): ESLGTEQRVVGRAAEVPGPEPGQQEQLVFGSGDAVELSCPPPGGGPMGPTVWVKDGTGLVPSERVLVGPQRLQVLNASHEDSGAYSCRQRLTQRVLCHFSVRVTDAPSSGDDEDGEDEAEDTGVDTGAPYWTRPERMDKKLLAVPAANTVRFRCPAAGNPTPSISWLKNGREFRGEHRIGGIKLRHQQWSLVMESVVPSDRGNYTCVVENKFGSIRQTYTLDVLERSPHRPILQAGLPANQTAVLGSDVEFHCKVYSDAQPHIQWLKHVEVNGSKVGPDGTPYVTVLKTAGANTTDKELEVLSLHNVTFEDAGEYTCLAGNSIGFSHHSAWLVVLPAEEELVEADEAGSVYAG
Description: as §1, §2

FGFR1c = molecular target: T4, FGFR1c (Homo sapiens, UniProt P11362)
T4 construct: Fc-coupled FGFR ectodomains were immobilized on protein A/G beads; purchased R&D Systems 658FR050
T4 sequence (P11362 22-376 limits assumed): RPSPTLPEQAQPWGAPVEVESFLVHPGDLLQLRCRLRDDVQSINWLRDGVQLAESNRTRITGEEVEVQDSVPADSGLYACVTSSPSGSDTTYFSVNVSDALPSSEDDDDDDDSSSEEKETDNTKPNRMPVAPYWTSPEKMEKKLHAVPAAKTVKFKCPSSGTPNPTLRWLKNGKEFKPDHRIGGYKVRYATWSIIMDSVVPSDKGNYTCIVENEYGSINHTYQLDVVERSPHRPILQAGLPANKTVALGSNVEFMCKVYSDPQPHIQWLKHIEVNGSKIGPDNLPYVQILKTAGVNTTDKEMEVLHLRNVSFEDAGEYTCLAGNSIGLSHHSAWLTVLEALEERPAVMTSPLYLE
Description: as §1, §2

B1: sKL: recombinant soluble α-klotho ectodomain, mouse aa 35-982 and human aa 34-981, FLAG- or Strep/His-tagged, purified from HEK293 cells (protein)
chain: EPGDGAQTWARFSRPPAPEAAGLFQGTFPDGFLWAVGSAAYQTEGGWQQHGKGASIWDTFTHHPLAPPGDSRNASLPLGAPSPLQPATGDVASDSYNNVFRDTEALRELGVTHYRFSISWARVLPNGSAGVPNREGLRYYRRLLERLRELGVQPVVTLYHWDLPQRLQDAYGGWANRALADHFRDYAELCFRHFGGQVKYWITIDNPYVVAWHGYATGRLAPGIRGSPRLGYLVAHNLLLAHAKVWHLYNTSFRPTQGGQVSIALSSHWINPRRMTDHSIKECQKSLDFVLGWFAKPVFIDGDYPESMKNNLSSILPDFTESEKKFIKGTADFFALCFGPTLSFQLLDPHMKFRQLESPNLRQLLSWIDLEFNHPQIFIVENGWFVSGTTKRDDAKYMYYLKKFIMETLKAIKLDGVDVIGYTAWSLMDGFEWHRGYSIRRGLFYVDFLSQDKMLLPKSSALFYQKLIEKNGFPPLPENQPLEGTFPCDFAWGVVDNYIQVDTTLSQFTDLNVYLWDVHHSKRLIKVDGVVTKKRKSYCVDFAAIQPQIALLQEMHVTHFRFSLDWALILPLGNQSQVNHTILQYYRCMASELVRVNITPVVALWQPMAPNQGLPRLLARQGAWENPYTALAFAEYARLCFQELGHHVKLWITMNEPYTRNMTYSAGHNLLKAHALAWHVYNEKFRHAQNGKISIALQADWIEPACPFSQKDKEVAERVLEFDIGWLAEPIFGSGDYPWVMRDWLNQRNNFLLPYFTEDEKKLIQGTFDFLALSHYTTILVDSEKEDPIKYNDYLEVQEMTDITWLNSPSQVAVVPWGLRKVLNWLKFKYGDLPMYIISNGIDDGLHAEDDQLRVYYMQNYINEALKAHILDGINLCGYFAYSFNDRTAPRFGLYRYAADQFEPKASMKHYRKIIDSNGFPGPETLERFCPEEFTVCTECSFFHTRKS
modifications: left off: small tags and cut ends
notes: recombinant soluble α-klotho ectodomain, mouse aa 35-982 and human aa 34-981, FLAG- or Strep/His-tagged, purified from HEK293 cells
sKL binding to FGFR2c (FGFR2c): no sKL binding | co-precipitation of FLAG-sKL with FGFR4 (FGFR4): to a lower extent with FGFR4; also recorded: bound to FGFR4 and to a lower extent to FGFR4 | sKL binding to FGFR3c (FGFR3c): no sKL binding | co-precipitation of FLAG-sKL with FGFR1c (FGFR1c): could be co-precipitated with FGFR1c
